In the supplement of paper PMC12042874:
± gives the uncertainty stated by the source.

Assay: amyloid nucleation score (Sup35N fusion, yeast selection) (log enrichment); library NNK1; higher = more nucleation; inactive = no reads after selection
Method in brief: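 Output and input plasmid inserts were sequenced by Illumina after psi-negative yeast carrying Sup35N fused to peptides of 20 random codons had been induced 24 hours with 100 μM copper sulfate and grown 7 days at 30°C on medium lacking adenine and uracil. The nucleation score is the DiMSum log enrichment of output over input reads, centred on the mode score of non-aggregating sequences. Sequences with under 100 input reads were excluded.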

Substance | amyloid nucleation score
WYPMYQNTYRAEERVT | 0.42 ± 0.64
WYPYTVSIPLIYVVSCIDEY | 5.91 ± 0.07
WYSTFGAMKKLGTYPCSGVN | -0.46 ± 1
YAALVHTHLKDYEISIYVIN | 0.988 ± 0.43
YADRFRASASPNMCDRCSLW | 4.01 ± 0.098
YALCKLSA | 0.851 ± 0.79
YANCL | 0.517 ± 0.44
YAPLLLSWAYFGV | 1.31 ± 0.25
YCANQRNSVPMGRMEPHSSS | -0.2 ± 0.49
YCCGDTPTFCSLKFIMS | 7.059 ± 0.047
YCCYLMCYSRRILDGP | 0.174 ± 0.43
YCEYILGFCFEMYAFGNRSP | 0.573 ± 0.62
YCNLIRFKFCVNSCCMSSSL | 5.64 ± 0.078
YCPSC | 0.859 ± 0.42
YCRFWVDFFVFESILDSPPN | 0.093 ± 0.32
YCWRVSHLGNGRYRLSLSFG | inactive
YDEGWANT | 0.048 ± 1.5
YDMIWSSMLGFIERQAYMLP | -0.502 ± 0.32
YDPPTWIHNAMGG | 0.342 ± 0.41
YDPRIGLVSVGNVRNNSV | -1.48 ± 1.4
YDRMRTSIVRACERNLSDMH | 0.786 ± 0.35
YDRVYLNQFVRTESVHFFCL | 6.341 ± 0.056
YDSRCMAVSFSGSLFSHLLE | -0.317 ± 0.45

Substance | amyloid nucleation score
YDTFSPRSWS | 2.02 ± 0.62
YDTLMMNNLEMSTFVRMGLW | 0.503 ± 0.51
YECKVYKSK | 0.466 ± 0.47
YEGGM | -0.334 ± 0.73
YELAMECYVSWVLLYVA | 0.362 ± 0.32
YEPEGIQSIWRCSAVRHAKA | -0.286 ± 1.9
YFAEDSCERFAPDWVRLSTR | -0.425 ± 1.3
YFASCRTM | -0.193 ± 0.27
YFCCALSNLLFRKSKHDRVR | 6.872 ± 0.068
YFDWTRVGYNYGSILLPVEA | 0.135 ± 0.51
YFFGLILY | -0.332 ± 0.56
YFFRKLSGSWASSFLVAPMV | 0.444 ± 0.59
YFKNTGEVRSIRLSGHHGWG | 0.048 ± 0.86
YFNVSWID | 1.02 ± 0.38
YFSGLKDFILISNQNGSS | 2.66 ± 0.2
YFSVYSRHRSIWTCGIVYSK | 0.078 ± 0.49
YGCDGDVFRLIVWDVIAPSE | 0.044 ± 0.34
YGCSVYTVCMF | 8.243 ± 0.071
YGETGVINWRV | -0.217 ± 0.44
YGFKSRDKPFNL | 0.008 ± 0.44
YGINMWRYLGNQEEATIVFL | 0.244 ± 0.3
YGQMVIFGPVMLMAVLTW | 3.33 ± 0.093
YGTNKISVALWS | -0.054 ± 0.79

Substance | amyloid nucleation score
YGYLTITPVQVYIQRTSTWT | 4.16 ± 0.12
YGYMGGCHFPLYLMRIDSRD | 0.564 ± 0.75
YGYRSRSLSFCLD | inactive
YHFTSFSNVHHLAHRVGNSF | -0.333 ± 1.4
YHKTYIRYWAIVFDMMVRFG | 0.372 ± 1.4
YHVRLV | 0.147 ± 0.34
YIASMVCDIRKPHPCLVYVL | 0.149 ± 0.42
YICEFMIRTMKQPWPSKGEG | 0.542 ± 0.32
YIFWLYWRQSSSNCLGDVKW | -0.46 ± 0.46
YILWHEIFQDCLTRDIIRLM | 0.248 ± 0.54
YIRIMLGMMPNLRERSRTRV | inactive
YIVGPIGVFSY | 2.25 ± 0.55
YKEFVLYILYRLGLMIRKA | inactive
YKESPYNYTWGTVLVGCMVI | -0.702 ± 1.1
YKFCVILSNGRQCVMALVRP | 0.286 ± 1.2
YKFYVTTLGFYDWCPFPVER | 0.831 ± 0.42
YKNFKFSDDTRMFVNNVSVY | 1.25 ± 0.56
YKNIPFTYGSFVLASYMSRK | 0.368 ± 0.63
YKSIWTRLGSGRSRVGLSRL | -0.38 ± 1
YLCGHLMNTLYAILNVRRAL | 0.888 ± 0.9
YLDGVECTN | -0.366 ± 0.63
YLDGVIWFLK | -0.591 ± 0.31
YLFKSISCNSGRTRNQPKGQ | -0.195 ± 1.4

Substance | amyloid nucleation score
YLILYPRASFKYAIILWSCF | -0.749 ± 0.42
YLIVVLCRRCLMGSGYNRIG | -0.368 ± 0.97
YLLRVCAAMMFSKLCNG | 6.028 ± 0.049
YLMLCTEIEPKRAGGGMSER | inactive
YLNERE | -1.16 ± 1
YLQFVRQRVCWLRLRPMMKA | -0.183 ± 0.56
YLSYDT | -0.411 ± 0.36
YLTGVYNWGMCKTCFPRDWG | 2.65 ± 0.096
YMGPFVPFSRTTAYNVSTFK | 0.42 ± 0.79
YMLRYVAWCLGPAL | 0.459 ± 0.37
YMQGDYM | inactive
YMRSLFCISTQLSRAILVLP | 0.478 ± 1
YMTQIMHKARRFNAWPAVMM | 0.087 ± 0.3
YMYQIG | -0.691 ± 1.7
YNCLYDRPFRMMSQCLNIGM | -1.59 ± 1.2
YNELKFRGYYNRCLECGFVR | 0.495 ± 0.91
YNKVDM | -0.316 ± 0.53
YNMVFWTKFSLSWLLCLHGK | 5.86 ± 0.088
YNNSLWPIRLVRSKQCLSWT | 0.215 ± 0.54
YNSEGDRLESNESWDWMARR | 0.511 ± 0.57
YNTCECFSFLTCKWLNKMDG | 2.79 ± 0.16
YNVVSSKNNTVRFVLFP | 4.31 ± 0.12
YNYDPRFVY | -0.246 ± 0.28

Substance | amyloid nucleation score
YPGEGEPKKYLPYNRLCWRS | 1.08 ± 0.69
YPGQARNRVLCCGWKFFIDQ | 3.39 ± 0.15
YPGRWSSYRLEGSTKNARNG | inactive
YPLTSHYLLTR | 0.038 ± 0.64
YPNHGLLRQ | 0.166 ± 0.43
YPSDLLDIWDDWICWCWELN | 0.225 ± 0.53
YQETPVNPEPVV | -0.01 ± 0.38
YQKDWFDMHEYYRPM | 1.42 ± 0.64
YQTWRQWLLFACRVSECYDM | -0.508 ± 1.1
YQYNATFFPSITRTNLETKG | 0.337 ± 0.49
YRDDYACFLRPYPARCG | -0.141 ± 0.92
YRFKFGVKWLAPNFLPAFGY | inactive
YRKFENGVSVIRFEVQCTLV | 4.88 ± 0.072
YRLRGGP | -0.25 ± 1.2
YRRNIIL | -0.368 ± 0.4
YRTNRKEHSYVLLYARRPSQ | 0.56 ± 0.72
YSFSISVYLLGLSCCCWMGE | 6.08 ± 0.064
YSGVLFSTAVEYGGRGLVHE | inactive
YSIVFGWLRYRLDWMCLISL | 0.055 ± 0.26
YSLLVHIFMLLWSYDCLTVT | -1.54 ± 2.7
YSLSPTKLGFSERLDSNEVV | 0.225 ± 0.62
YSQYVVTSFTSLREVS | -0.332 ± 0.25
YSRGCTFYAKGELRDNGSYY | -0.168 ± 0.48

Substance | amyloid nucleation score
YSSRIVRVSVRRVIHQSLRS | 1.41 ± 0.52
YSSVDDGGDQHRGLSKAGHN | -0.525 ± 0.64
YSVSWQLFGIDVCTFVTVRS | 0.367 ± 0.52
YSWTVAKIFTYFSVQLSIFR | -0.396 ± 0.33
YSYGCCSMLNVVS | 1.93 ± 0.2
YTFQIILNSVPWYFCAMLWE | 5.54 ± 0.1
YTMFLPFRLR | 0.376 ± 0.8
YTRVLILNENATAIIWSE | 1.87 ± 0.4
YTVRLM | 0.125 ± 0.61
YTVSNQLLSRLRGVQHNKLK | -1.11 ± 0.92
YTVSTRWRGVNIPYVKHAAL | 0.499 ± 0.25
YTVTCYCGSDTWSKMLAKVF | -1.16 ± 2.4
YTWQYAYLCQVMTSFYSGSI | -0.269 ± 0.47
YVADGLKDKQRCSACFDASS | 4.93 ± 0.063
YVEKVSFTAIEWWRGQLQSV | 0.565 ± 0.47
YVMQSATDVETSNSGIS | 0.525 ± 0.84
YVPGSRLRPYLIQSFNNSLY | 2.81 ± 0.19
YVPSRSGYIDFAGRNNRYSI | -0.401 ± 0.73
YVQLLMVHNAMYRSAGIFSY | 0.572 ± 0.56
YVRWMSLAPSVQWH | 1.11 ± 0.19
YVSDFKADTATLSSDLCQLA | -0.183 ± 0.73
YVTVEIMGYVTKVVTITLW | -0.419 ± 0.44
YVYRFNFLNFVW | 1.93 ± 0.12

Substance | amyloid nucleation score
YWDKNFHYMCVARLFIVRLC | 0.091 ± 0.7
YWDYNNFRFFLRKLSFISRL | 0.822 ± 1
YWFDYINPLMRSFAHATAIS | 0.74 ± 0.9
YWGLQPFMIY | 0.272 ± 0.74
YWGTS | 0.971 ± 0.49
YWTALTFSHY | 0.486 ± 0.82
YYFILYGSVNQHRTSIFRAR | 5.08 ± 0.059
YYHRSNTLLSIYVSKLLTNN | -0.183 ± 1.2
YYIEVLILCWACQNALSRAS | 0.5 ± 0.9
YYKYKLLLIKLVLGGAGRPV | -0.054 ± 0.56
YYPGSGFH | -0.531 ± 0.65
YYSGGFIMVVHLWSVELRFR | 0.23 ± 0.9
YYTVLLRS | -0.453 ± 0.52
YYTYDGVGSLICTCRFTRVV | -0.356 ± 0.49
YYVDV | -0.034 ± 0.88
YYVFITIYVVSLVCNLSCYF | -0.573 ± 0.74
YYVGSYTL | inactive
YYVLFNAFQLIPLGWGNYS | inactive
YYVVVFVANAVFPQYPDPRN | 7.21 ± 0.055
YYWCAHPSCYPSVY | 0.878 ± 0.58
YYYGKVA | 0.227 ± 0.57
